Laboratory results reported in the supplement of paper PMC10567573.

B1: KIAA0774 (parent)
chain: FEDEVKRLGWQQQAELQELEERLQ
B2: ZNF649 (parent)
chain: YQAGKPDALTKLEQGEPLWTLEDE

Variants of: B1
Test: protein stability index of a GFP-peptide fusion (GPS, HEK-293T) (PSI 1-6); higher = more stable
Conditions: c terminus: a fixed tail appended
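Also: lentivirally expressed fusions sorted by FACS into six bins by GFP to DsRed ratio, PSI derived from sequencing read proportions per bin multiplied by bin number.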

Variant	protein stability index
SEDEVKRLGWQQQAELQELEERLQ	2.67
WEDEVKRLGWQQQAELQELEERLQ	3.93
QEDEVKRLGWQQQAELQELEERLQ	4.05
NEDEVKRLGWQQQAELQELEERLQ	4.32
EEDEVKRLGWQQQAELQELEERLQ	4.66
PEDEVKRLGWQQQAELQELEERLQ	4.12
CEDEVKRLGWQQQAELQELEERLQ	3.11
IEDEVKRLGWQQQAELQELEERLQ	3.86
GEDEVKRLGWQQQAELQELEERLQ	3.56
DEDEVKRLGWQQQAELQELEERLQ	4.72
YEDEVKRLGWQQQAELQELEERLQ	3.38
REDEVKRLGWQQQAELQELEERLQ	3.41
TEDEVKRLGWQQQAELQELEERLQ	2.85
MEDEVKRLGWQQQAELQELEERLQ	3.68
VEDEVKRLGWQQQAELQELEERLQ	3.66
HEDEVKRLGWQQQAELQELEERLQ	4.02
KEDEVKRLGWQQQAELQELEERLQ	2.96
AEDEVKRLGWQQQAELQELEERLQ	4.11
LEDEVKRLGWQQQAELQELEERLQ	4.06
FYDEVKRLGWQQQAELQELEERLQ	3.56
FLDEVKRLGWQQQAELQELEERLQ	3.05
FDDEVKRLGWQQQAELQELEERLQ	3.79
FRDEVKRLGWQQQAELQELEERLQ	4.41

Variant	protein stability index
FQDEVKRLGWQQQAELQELEERLQ	2.93
FPDEVKRLGWQQQAELQELEERLQ	3.16
FADEVKRLGWQQQAELQELEERLQ	2.71
FIDEVKRLGWQQQAELQELEERLQ	3.12
FTDEVKRLGWQQQAELQELEERLQ	2.77
FNDEVKRLGWQQQAELQELEERLQ	2.5
FCDEVKRLGWQQQAELQELEERLQ	2.71
FMDEVKRLGWQQQAELQELEERLQ	2.77
FHDEVKRLGWQQQAELQELEERLQ	2.16
FGDEVKRLGWQQQAELQELEERLQ	3.14
FVDEVKRLGWQQQAELQELEERLQ	2.21
FWDEVKRLGWQQQAELQELEERLQ	3.33
FFDEVKRLGWQQQAELQELEERLQ	3.25
FSDEVKRLGWQQQAELQELEERLQ	2.32
FKDEVKRLGWQQQAELQELEERLQ	2.27
FEDLVKRLGWQQQAELQELEERLQ	2.47
FEDKVKRLGWQQQAELQELEERLQ	2.97
FEDAVKRLGWQQQAELQELEERLQ	2.75
FEDFVKRLGWQQQAELQELEERLQ	3.38
FEDIVKRLGWQQQAELQELEERLQ	3.19
FEDCVKRLGWQQQAELQELEERLQ	2.93
FEDGVKRLGWQQQAELQELEERLQ	3.21
FEDHVKRLGWQQQAELQELEERLQ	3.59

Variant	protein stability index
FEDDVKRLGWQQQAELQELEERLQ	4.14
FEDMVKRLGWQQQAELQELEERLQ	3.12
FEEEVKRLGWQQQAELQELEERLQ	3.86
FEMEVKRLGWQQQAELQELEERLQ	2.59
FEHEVKRLGWQQQAELQELEERLQ	2.99
FETEVKRLGWQQQAELQELEERLQ	2.69
FELEVKRLGWQQQAELQELEERLQ	2.95
FEYEVKRLGWQQQAELQELEERLQ	2.85
FEWEVKRLGWQQQAELQELEERLQ	3.19
FEVEVKRLGWQQQAELQELEERLQ	2.76
FEAEVKRLGWQQQAELQELEERLQ	3.33
FEPEVKRLGWQQQAELQELEERLQ	3.42
FEIEVKRLGWQQQAELQELEERLQ	1.66
FESEVKRLGWQQQAELQELEERLQ	2.58
FEREVKRLGWQQQAELQELEERLQ	2.35
FENEVKRLGWQQQAELQELEERLQ	2.75
FEGEVKRLGWQQQAELQELEERLQ	3.23
FEKEVKRLGWQQQAELQELEERLQ	2.03
FEQEVKRLGWQQQAELQELEERLQ	3.29
FEFEVKRLGWQQQAELQELEERLQ	2.72
FECEVKRLGWQQQAELQELEERLQ	2.3

Variants of: B2
Test: as above
Conditions: c terminus: a fixed tail appended

Variant	protein stability index
YQAGKPDALTKLEQGEHLWTLEDE	4.1
YQAGKPDALTKLEQGEILWTLEDE	3.22
YQAGKPDALTKLEQGEWLWTLEDE	3.36
YQAYKPDALTKLEQGEPLWTLEDE	3.59
YQAAKPDALTKLEQGEPLWTLEDE	4.68
YQACKPDALTKLEQGEPLWTLEDE	4.47
YQAHKPDALTKLEQGEPLWTLEDE	4.58
YQATKPDALTKLEQGEPLWTLEDE	3.97
YQAQKPDALTKLEQGEPLWTLEDE	4.08
YQAGCPDALTKLEQGEPLWTLEDE	4.72
YQAGAPDALTKLEQGEPLWTLEDE	4.48
YQAGTPDALTKLEQGEPLWTLEDE	4.6
YQAGVPDALTKLEQGEPLWTLEDE	3.03
YQAGKPFALTKLEQGEPLWTLEDE	2.49
YQAGKPRALTKLEQGEPLWTLEDE	3.65
YQAGKPIALTKLEQGEPLWTLEDE	2.61
YQAGKPYALTKLEQGEPLWTLEDE	2.06
YQAGKPLALTKLEQGEPLWTLEDE	3.15
YQAGKPTALTKLEQGEPLWTLEDE	3.59
YQAGKPDALTKCEQGEPLWTLEDE	5.11
YQAGKPDALTKPEQGEPLWTLEDE	4.38
YQAGKPDALTKTEQGEPLWTLEDE	4.22
YQAGKPDALTKNEQGEPLWTLEDE	4.78
YQAGKPDALTKHEQGEPLWTLEDE	4.73
YQAGKPDALTKSEQGEPLWTLEDE	4.52

Variant	protein stability index
YQAGKPDALTKREQGEPLWTLEDE	4.4
YQAGKPDALTKIEQGEPLWTLEDE	4.56
YQAGKPDALTKLEQGEPEWTLEDE	5.49
YQAGKPDALTKLEQGEPWWTLEDE	3.59
YQAGKPDALTKLEQGEPYWTLEDE	3.95
YQAGKPDALTKLEQGEPQWTLEDE	5.19
YQAGKPDALTKLEQGEPLWTLWDE	2.35
YQAGKPDALTKLEQGEPLWTLLDE	3.6
YQAGKPDALTKLEQGEPLWTLQDE	3.5
YQAGKPDALTKLEQGEPLWTLHDE	3.3
YQAGKPDALTKLEQGEPLWTLVDE	2.88
YQAGKPDALTKLEQGEPLWTLTDE	4.28
YQAGKPDALDKLEQGEPLWTLEDE	4.91
YQAGKPDALGKLEQGEPLWTLEDE	3.69
YQAGKPDALWKLEQGEPLWTLEDE	2.31
YQAGKPDALPKLEQGEPLWTLEDE	4.97
YQAGKPDALEKLEQGEPLWTLEDE	4.5
YQAGKPDALSKLEQGEPLWTLEDE	4.62
YQAGKPDALIKLEQGEPLWTLEDE	4.02
YQAGKPDALTKLEQGEPLVTLEDE	5.72
YQAGKPDALTKLEQGEPLTTLEDE	5.61
YQAGKPDALTKLEQGEPLCTLEDE	4.86
YQAGKPDALTKLEQGEPLETLEDE	5.34
YQAGKPDALTKLEQGFPLWTLEDE	2
YQAGKPDALTKLEQGMPLWTLEDE	1.92

Variant	protein stability index
YQAGKPDALTKLEQGEPLWTLESE	4.11
YQAGKPDALTKLEQGEPLWTLEEE	4.57
YQAGKPDALTKLEQGEPLWTLEHE	4.13
YQAGKPDALTKLEQGEPLWTLERE	4.16
YQAGKPDALTKLEQGEPLWALEDE	3.73
YQAGKPDALTKLEQGEPLWRLEDE	4.34
YQAGKPDALTKLEQGEPLWLLEDE	3.15
YQAGKPDALTKLEQGEPLWKLEDE	4.13
YQAGKPDALTKLCQGEPLWTLEDE	3.2
YQAGKPDALTKLFQGEPLWTLEDE	2.6
YQAGKPDALTKLMQGEPLWTLEDE	3.45
YQAGKPDALTKLERGEPLWTLEDE	3.8
YQAGKPDALTKLEVGEPLWTLEDE	4.71
YQAGKPDALTKLEAGEPLWTLEDE	4.11
YQAGKPDALTKLEPGEPLWTLEDE	4.63
YQAGKPDALTKLESGEPLWTLEDE	4.13
YQAGKPDALTKLEQGEPLWTLEDI	3.42
YQAGKPDALTKLEQGEPLWTLEDF	3.05
YQAGKPDALTKLEQGEPLWTLEDT	4.42
YQAGKPDALTVLEQGEPLWTLEDE	4.69
YQAGKPDALTELEQGEPLWTLEDE	4.06
YQAGKPDALTALEQGEPLWTLEDE	4.66
YQAGKPDALTRLEQGEPLWTLEDE	4.14
YQAGKPDALTHLEQGEPLWTLEDE	4.78
DQAGKPDALTKLEQGEPLWTLEDE	5.21

Variant	protein stability index
IQAGKPDALTKLEQGEPLWTLEDE	5.01
NQAGKPDALTKLEQGEPLWTLEDE	5.22
LQAGKPDALTKLEQGEPLWTLEDE	4.51
AQAGKPDALTKLEQGEPLWTLEDE	4.88
QQAGKPDALTKLEQGEPLWTLEDE	5.46
SQAGKPDALTKLEQGEPLWTLEDE	5.54
YQAGKTDALTKLEQGEPLWTLEDE	4.64
YQAGKADALTKLEQGEPLWTLEDE	3.88
YQAGKDDALTKLEQGEPLWTLEDE	3.77
YQAGKKDALTKLEQGEPLWTLEDE	4.29
YQAGKHDALTKLEQGEPLWTLEDE	3.93
YQAGKIDALTKLEQGEPLWTLEDE	4.32
YQAGKPDALTKLEQGEPLWTHEDE	5.03
YQAGKPDALTKLEQGEPLWTCEDE	2.78
YQAGKPDALTKLEQGEPLWTSEDE	4.52
YQAGKPDALTKLEQGEPLWTGEDE	4.4
YQAGKPDALTKLEQGEPLWTWEDE	3.52
YQAGKPDALTKLEQGEPLWTQEDE	4.23
YQAGKPDQLTKLEQGEPLWTLEDE	4.41
YQAGKPDCLTKLEQGEPLWTLEDE	3.61
YQAGKPDNLTKLEQGEPLWTLEDE	4.49
YQAGKPDMLTKLEQGEPLWTLEDE	3.83
YQAGKPDILTKLEQGEPLWTLEDE	4.08
YQAGKPDLLTKLEQGEPLWTLEDE	3.56
YQAGKPDFLTKLEQGEPLWTLEDE	2.91

Variant	protein stability index
YQAGKPDRLTKLEQGEPLWTLEDE	4.65
YQAGKPDAYTKLEQGEPLWTLEDE	4.54
YQAGKPDAHTKLEQGEPLWTLEDE	4.04
YQAGKPDARTKLEQGEPLWTLEDE	4.29
YQAGKPDATTKLEQGEPLWTLEDE	4.71
YQAGKPDAPTKLEQGEPLWTLEDE	4.38
YQAGKPDAGTKLEQGEPLWTLEDE	4.55
YQAGKPDACTKLEQGEPLWTLEDE	4.63
YQRGKPDALTKLEQGEPLWTLEDE	3.66
YQHGKPDALTKLEQGEPLWTLEDE	4.14
YQFGKPDALTKLEQGEPLWTLEDE	3.64
YQEGKPDALTKLEQGEPLWTLEDE	4.65
YQAGKPDALTKLEQEEPLWTLEDE	4.88
YQAGKPDALTKLEQPEPLWTLEDE	3.89
YQAGKPDALTKLEQWEPLWTLEDE	3.39
YNAGKPDALTKLEQGEPLWTLEDE	4.22
YLAGKPDALTKLEQGEPLWTLEDE	3.1
YCAGKPDALTKLEQGEPLWTLEDE	3.87
YRAGKPDALTKLEQGEPLWTLEDE	5.15
YVAGKPDALTKLEQGEPLWTLEDE	2.53
YHAGKPDALTKLEQGEPLWTLEDE	3.08
